Reference: paper PMC10878525
Where two headings read alike, the source gives them in different places.

Experiments:
[1] = target: chicken sodium hydrogen exchanger isoform 1 (chNHE1), expressed on 293T cells (pCAF-chNHE1) (chicken); test: flow cytometry on cells
[2] = target: soluble chECL1 protein (chicken); test: SPR; Biacore 8K; chECL1 immobilised on a CM5 chip to about 100 RU; serial dilutions of gp85 flowed; 10 mM HEPES pH 7.2, 150 mM NaCl, 0.05% Tween-20; 1:1 binding model
[3] = target: chECL1, first extracellular loop of chNHE1, with a C-terminal HA tag (chicken); test: co-IP; 293T cells co-transfected with chECL1 (HA) and pCAF-gp85 plasmids for 48 h; lysates on anti-HA-agarose; blot with 4A3 and anti-HA; gp85 intensities normalised to input
[4] = target: chicken sodium hydrogen exchanger isoform 1 (chNHE1), expressed on 293T cells (pCAF-chNHE1) (chicken); test: virus-cell binding assay read by RT-qPCR; 293T cells transfected with pCAF-chNHE1, exposed to rescued virus at MOI 50 for 1 h at 4 °C, washed five times; gp85 gene RT-qPCR against human GAPDH
[5] = target: chicken sodium hydrogen exchanger isoform 1 (chNHE1), expressed on 293T cells (pCAF-chNHE1) (chicken); test: flow cytometry on cells; virus-cell binding: 293T cells transfected with pCAF-chNHE1 incubated with 50 MOI rescued virus 1 h on ice; stained with 4A3 anti-gp85 and FITC secondary, anti-FLAG co-staining
[6] = target: soluble chECL1 protein (chicken); test: SPR; Biacore 8K; chECL1 immobilised on a CM5 chip to about 100 RU; serial dilutions of gp85 flowed; 10 mM HEPES pH 7.2, 150 mM NaCl, 0.05% Tween-20; 1:1 binding model; remark: listed apart in the source
[7] = target: chECL1, first extracellular loop of chNHE1, with a C-terminal HA tag (chicken); test: co-IP
[8] = target: chicken sodium hydrogen exchanger isoform 1 (chNHE1), expressed on 293T cells (pCAF-chNHE1) (chicken); test: flow cytometry on cells; protein-cell binding assay: purified gp85-Fc (0.5 mL of 200 ng/uL; 300, 200 and 50 ng/uL in Fig 2A) incubated 1 h on ice with 293T cells transfected with pCAF-chNHE1; anti-human IgG (Fc specific)-FITC, anti-FLAG co-staining

Substance: JL08CH3-1-gp85 (CAG-JL3-1-gp85-Fc) (Fc fusion)
- binding rate at 50 ng/μL [1]: 58.5%
- binding rate at 200 ng/μL [1]: 85%
- binding rate at 300 ng/μL [1]: 87.9%
- Kd [2]: 0.109 µM

Substance: N123I-gp85 (pCAF-N123I-gp85) (natural protein)
- fold binding against HPRS103-gp85 [3]: 1.6 fold

Substance: Env of the recombinant virus rHPRS103-N123I (N123I in gp85), on virions (complex)
- fold binding capacity against rHPRS103 (RT-qPCR) [4]: 7.14 fold
- fold binding capacity against rHPRS103 (FACS) [5]: 1.27 fold

Substance: soluble HPRS103-gp85 (CAG-sgp85-Fc) (Fc fusion)
- binding rate at 50 ng/μL [1]: 9.7%
- binding rate at 200 ng/μL [1]: 59.2%
- binding rate at 300 ng/μL [1]: 70%
- Kd [2]: 0.584 µM
- Kd [6]: 0.547 µM

Substance: JL08CH3-1-gp85 (pCAF-JL3-1-gp85) (natural protein)
- fold binding capacity against HPRS103-gp85 [7]: 1.3 fold

Substance: Env of the recombinant virus rHPRS/JL3-1 (gp85 of JL08CH3-1 on the HPRS103 backbone), on virions (complex)
- fold binding capacity against rHPRS103 (RT-qPCR) [4]: 7.96 fold
- fold binding capacity against rHPRS103 (FACS) [5]: 1.29 fold

Substance: N123I-gp85 (CAG-N123I-gp85-Fc) (Fc fusion)
- Kd [6]: 0.135 µM
- fold binding capacity against HPRS103-gp85 [8]: 1.3 times

Substance: N123I/V128F mutant gp85 (on CAG-sgp85-Fc backbone) (Fc fusion)
- fold binding capacity against HPRS103-gp85 [8]: 1.3 times
